Five molecules from paper PMC13328618, “Heritable immunization of mice against Lyme disease enables ecological disease prevention” (Nature Communications, 2026) can be followed below.

The target of assay [1] is recombinant outer surface protein A (rOspA) of Borrelia burgdorferi (Borrelia burgdorferi) (UniProt P0CL66).
The target in assay [2] is T1, biotinylated OspA protein (Borrelia burgdorferi, UniProt P0CL66, biotin (site not stated)).
T1 construct: outer surface protein A (OspA), Borrelia burgdorferi; biotinylated for capture on streptavidin biosensors; May be the GenScript rOspA after biotinylation; also called biotinylated OspA proteins
T1 sequence (P0CL66 17-273): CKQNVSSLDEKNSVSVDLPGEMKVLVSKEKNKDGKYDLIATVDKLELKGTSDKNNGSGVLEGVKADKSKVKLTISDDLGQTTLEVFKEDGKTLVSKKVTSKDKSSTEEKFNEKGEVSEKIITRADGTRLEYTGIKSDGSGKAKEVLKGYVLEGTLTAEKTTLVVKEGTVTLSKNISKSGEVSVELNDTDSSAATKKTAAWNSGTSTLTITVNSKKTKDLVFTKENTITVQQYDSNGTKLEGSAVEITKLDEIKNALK
Nature of the assay: BLI; Octet Red96; biotinylated OspA immobilised on streptavidin biosensors; antibody 3.7-300 nM, 180 s association, 600 s dissociation in PBST with 0.1% bovine serum albumin; global fitting. The note with it: both partners purified.

In assay [3] the target is T2, recombinant outer surface protein A (rOspA) of Borrelia burgdorferi (Borrelia burgdorferi, UniProt P0CL66).
T2 construct: outer surface protein A (OspA), Borrelia burgdorferi; recombinant; source: produced by GenScript
T2 sequence (P0CL66 17-273): as above
Nature of the assay: ELISA; plates coated with rOspA at 5 µg/mL; mouse serum applied; detection with IgG ELISA detection kit; purified LA-2 IgG2a as standard. The note with it: one partner purified.

Assay [4] addresses T2, recombinant outer surface protein A …. Nature of the assay: ELISA; plates coated with 5 µg/mL rOspA; supernatants of transfected Lenti-X 293T cells 72 h after transfection; detection with mouse IgG2b ELISA kit. The note with it: one partner purified.

Sequence of recombinant outer surface protein A (rOspA) of Borrelia burgdorferi (Borrelia burgdorferi) (P0CL66 17-273): as above

Turning to “LA-2 scFv-albumin fusion protein expressed in Rosa26-targeted mice”, the xenodiagnosis: engineered (heterozygous) mice free of infection, by spirochetes in larval ticks fed 21 days after challenge with 10 B. burgdorferi-infected nymphs in assay [1] stood at 80%.

B1: full-length LA-2 IgG2a (antibody, V domains shown)
VH: QIQLVQSGPELKKPGETVKISCKASGYTFTDYSMYWVKQAPGKGLKRMGWINTETGEPTYADDFKGRFALSLDTSASTAYLHISNLKNEDTATYFCARGLDSWGQGTSVTVSS
VL: DIQMTQSPSSLSATLGGKVTITCKASQDINKYIAWYQHKPGKGPRLLIHYTSTLQPGNPSRFSGSGSGRDYSFSISNLEAEDIAIYYCLQYDNLQRTFGGGTKVEIK
notes: LA-2 heavy-chain variable region; mouse IgG2a heavy-chain constant region; LA-2 light-chain variable region; light-chain constant region; IgG2a; plasmid constructed by GenScript; source: Expi293F, transfected, purified (Protein A-Sepharose 4B)
Consider B1, for which, in assay [2], the binding result is reported as “binds”.

B2: full-length LA-2 monoclonal antibody expressed in liver-specific knock-in mice (antibody, V domains shown)
VH: B1 VH
VL: B1 VL
notes: LA-2 heavy-chain variable region, as the VH of m3; mouse IgG2a heavy-chain constant region; LA-2 light-chain variable region, as the VL of m3; light-chain constant region; Heavy and light chains are made from one transcript with a T2A element between them; residues of T2A may remain on the chains; also called LA-2 antibodies; source: transgenic Mus musculus (knock-in proximal to the albumin …)
As for B2, the binding result in assay [3] is reported as “binds”.

B3: LA-2 scFv-Fc with the top-performing linker … (Fc fusion)
VH: B1 VH
VL: B1 VL
notes: LA-2 heavy-chain variable region, as the VH of m3; linker between the heavy and light variable regions; LA-2 light-chain variable region, as the VL of m3; source: Lenti-X 293T, transfected (PEI), in supernatant
Consider B3, for which, in assay [4], the binding result is on record as “binds”.

B4: LA-2 scFv-Fc with Vh-(G4S)3-Vl linker (Fc fusion)
VH: B1 VH
VL: B1 VL
notes: LA-2 heavy-chain variable region, as the VH of m3; flexible (G4S)3 linker, printed as (G4S)3; LA-2 light-chain variable region, as the VL of m3; Cloned into a modified pcDNA3.4 vector; also called scFv with a Vh-(G4S)3-Vl linker; source: Expi293F, transfected, purified (Protein A-Sepharose 4B)
B4: the binding result in assay [2] is “binds”.
